Patent publication US20090318342A1, “Compounds” (IMPERIAL INNOVATIONS LIMITED, priority 2005, published 2009)
Values belong to the molecule of their own block, whether it stands above or below them.

Key:
[1] = tested on: aggrecanase activity in IL-1α- and retinoic acid-stimulated cartilage; test: Aggrecanase-generated aggrecan fragments in cartilage conditioned media, Western analysis; type: cell-based; conditions: IL-1α- and retinoic acid-stimulated cartilage
Description: Aggrecan fragments released into the conditioned medium are deglycosylated by digestion with chondroitinase ABC and keratanase and the samples are subjected to SDS/PAGE and Western blotting analysis as described by Little et al.. The primary antibodies used to detect aggrecanase-generated and MMP-generated aggrecan fragments are BC-3 and BC-14, respectively. Antigen-antibody complexes are detected by anti-mouse AP-linked donkey antibody and the AP substrate.
Conditioned media from the above experiments were analyzed by monoclonal antibodies that recognize either the aggrecanase-generated aggrecan neoepitope ARGSV or the MMP-generated aggrecan neoepitope FFGVG. In concordance with GAG release, there was an increase in the amount of aggrecanase-generated aggrecan fragments released upon treatment with either stimulus, but no MMP-generated fragments were detected.

ADAMTS-4 = molecular target: T1, ADAMTS-4 (Homo sapiens, UniProt O75173); test: Aggrecanase assay with GST-IGD-FLAG substrate, ADAMTS-4; type: biochemical; conditions: Table 3, pH 7.5, 37° C., read-out: Ki(app) ADAMTS-4
T1 sequence (O75173 213-837): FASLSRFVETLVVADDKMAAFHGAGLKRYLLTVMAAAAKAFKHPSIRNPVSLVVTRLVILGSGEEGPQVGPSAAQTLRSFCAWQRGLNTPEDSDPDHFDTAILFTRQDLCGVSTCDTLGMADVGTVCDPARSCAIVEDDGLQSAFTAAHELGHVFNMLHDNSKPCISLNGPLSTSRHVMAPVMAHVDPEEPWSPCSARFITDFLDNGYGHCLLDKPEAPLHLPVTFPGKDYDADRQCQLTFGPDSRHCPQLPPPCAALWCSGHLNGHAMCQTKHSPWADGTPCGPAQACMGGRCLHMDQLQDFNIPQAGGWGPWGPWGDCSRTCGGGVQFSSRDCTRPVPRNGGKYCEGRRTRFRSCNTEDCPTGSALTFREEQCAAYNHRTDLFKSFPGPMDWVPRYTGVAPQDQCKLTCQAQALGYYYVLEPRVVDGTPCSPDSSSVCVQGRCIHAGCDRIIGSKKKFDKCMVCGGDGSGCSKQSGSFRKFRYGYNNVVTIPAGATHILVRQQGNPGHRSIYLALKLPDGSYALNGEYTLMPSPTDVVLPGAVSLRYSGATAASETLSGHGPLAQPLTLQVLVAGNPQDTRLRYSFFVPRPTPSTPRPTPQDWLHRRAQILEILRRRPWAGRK
Experimental: FIG. 8. Graphs of Ki(app) determination. The GST-IGD-FLAG substrate assay was used to determine the Ki(app) of the N-terminal reactive site mutants against ADAMTS-4 (filled squares) and ADAMTS-5 (open circles).
The substrate containing glutathione S-transferase (GST) fused with the interglobular domain (IGD) of aggrecan (Tyr^331 to Gly^457) attached with a C-terminal FLAG sequence (GST-IGD-FLAG) was prepared by cloning it into pGEX-4T1 at the EcoR1 and Xho1 cloning sites. This substrate was expressed in E. coli strain BL-21 (non-DE3) transfected with the pGEX4T1 GST-IGD-FLAG plasmid by induction with […] isopropyl-beta-D-thiogalactopyranoside (IPTG). […] The concentration of intact substrate (52 kDa) was determined by comparison with Coomassie Brilliant Blue staining of known amounts of bovine serum albumin (GE Healthsciences, Buckinghampshire, UK). […]
Aggrecanase assays were carried out in 50 mM Tris HCl pH 7.5, 150 mM NaCl, 10 mM CaCl2, 0.02% NaN3, 0.05% Brij-35 at 37° C. […] The stained gels were then scanned using a scanning densitometer (Biorad GS-710, Hemel Hempstead, UK) and the band intensity of the product (17 kDa) quantified using the 1D Phoretix quantification software (Nonlinear Dynamics, Newcastle upon Tyne, UK). Background subtraction was done using the rolling ball method, and band intensity expressed as pixel volumes.

[2] = molecular target: catalytic domain of membrane-type 1 MMP (MMP-14(CD)); conditions: Table I; data taken from ref. 27; read-out: Ki(app) MMP-14(CD); cited from earlier work
[3] = molecular target: T2, full-length collagenase 1 (MMP-1) (Homo sapiens, UniProt P03956); conditions: Table I; data taken from ref. 8; read-out: Ki(app) MMP-1; cited from earlier work
T2 construct: full-length collagenase 1 (MMP-1)
T2 sequence (P03956 100-469): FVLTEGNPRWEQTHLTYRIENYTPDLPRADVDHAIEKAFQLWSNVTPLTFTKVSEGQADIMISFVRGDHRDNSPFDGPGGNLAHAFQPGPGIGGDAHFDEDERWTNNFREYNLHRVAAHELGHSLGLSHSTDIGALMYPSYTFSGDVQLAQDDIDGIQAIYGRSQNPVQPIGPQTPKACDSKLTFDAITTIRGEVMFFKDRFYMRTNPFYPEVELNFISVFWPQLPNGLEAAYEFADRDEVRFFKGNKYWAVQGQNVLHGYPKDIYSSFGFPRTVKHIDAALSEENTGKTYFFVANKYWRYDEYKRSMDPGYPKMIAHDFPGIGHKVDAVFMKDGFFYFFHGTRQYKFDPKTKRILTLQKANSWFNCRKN

- Ki (ADAMTS-4): 2.4 ± 1.6 nM
B1: N-TIMP-3: N-terminal inhibitory domain of TIMP-3 (residues 1 to 121), C-terminally His-tagged, wild-type (protein)
chain: CTCSPSHPQDAFCNSDIVIRAKVVGKKLVKEGPFGTLVYTIKQMKMYRGFTKMPHVQYIHTEASESLCGLKLEVNKYQYLLTGRVYDGKMYTGLCNFVERWDQLTLSQRKGLNYRYHLGCN
- Release of aggrecanase-generated aggrecan fragments ([1]; 0.05 μM): partially inhibited
- Release of aggrecanase-generated aggrecan fragments ([1]; 0.1 μM): completely blocked
- Ki [2]: 0.8 ± 0.03 nM
- Ki [3]: 1.2 ± 0.5 nM

- Ki (ADAMTS-4): 25 ± 3 nM
B2: -1A: N-TIMP-3 mutant with the addition of an N-terminal alanine extension (-1A) (protein)
chain: ACTCSPSHPQDAFCNSDIVIRAKVVGKKLVKEGPFGTLVYTIKQMKMYRGFTKMPHVQYIHTEASESLCGLKLEVNKYQYLLTGRVYDGKMYTGLCNFVERWDQLTLSQRKGLNYRYHLGCN
